Measurements taken from US20210155941A1 (KITE PHARMA EU B V, published 2021).

Target: HLA-A*02:01/HPV16 E7 11-19 (…) peptide-MHC complex on target cells (Human Papilloma virus serotype 16 …)
Assay: cell-based or functional assay

B1: A*02:01/HPV16 E711-19 human TCR (fully human constant regions) expressed on transduced T cells (TCR, V domains shown)
V domain 1: GQNIDQPTEMTATEGAIVQINCTYQTSGFNGLFWYQQHAGEAPTFLSYNVLDGLEEKGRFSSFLSRSKGYSYLLLKELQMKDSASYLCASVDGNNRLAFGKGNQVVVIP
V domain 2: DAGVTQSPTHLIKTRGQQVTLRCSPKSGHDTVSWYQQALGQGPQFIFQYYEEEERQRGNFPDRFSGHQFPNYSSELNVNALLLGDSALYLCASSLGWRGGRYNEQFFGPGTRLTVLE
**Q.** For B1, which “EC50 of intracellular IFN-γ (ICCS, flow cytometry), CD4+ T cells td with the TCR vector lacking the miRαβ cassette, peptide-loaded T2 target cells” value is on record?
**A.** ~52.4 nM

**Q.** What about the “EC50 of intracellular IFN-γ (ICCS, flow cytometry), CD4+ T cells td with the pMP71-miRαβ A*02:01/HPV16 E711-19 fHC TCR vector, peptide-loaded T2 target cells” value of the same binder?
**A.** ~22.3 nM

**Q.** And the “EC50 of intracellular IFN-γ (ICCS, flow cytometry), CD8+ T cells td with the TCR vector lacking the miRαβ cassette, peptide-loaded T2 target cells” value?
**A.** ~6.4 nM

**Q.** What about the “EC50 of intracellular IFN-γ (ICCS, flow cytometry), CD8+ T cells td with the miRαβ TCR vector (SEQ ID NO: 15), peptide-loaded T2 target cells” value of the same binder?
**A.** ~3.4 nM
